Data on six molecules can be found in paper PMC3359993, “Polydnavirus Ank Proteins Bind NF-κB Homodimers and Inhibit Processing of Relish” (PLoS Pathogens, 2012).

Data set [1] concerns the target T1, Dif, truncated (RHD, NLS and 20 additional C-terminal residues), StrepTagII-tagged (Drosophila melanogaster).
T1 chain: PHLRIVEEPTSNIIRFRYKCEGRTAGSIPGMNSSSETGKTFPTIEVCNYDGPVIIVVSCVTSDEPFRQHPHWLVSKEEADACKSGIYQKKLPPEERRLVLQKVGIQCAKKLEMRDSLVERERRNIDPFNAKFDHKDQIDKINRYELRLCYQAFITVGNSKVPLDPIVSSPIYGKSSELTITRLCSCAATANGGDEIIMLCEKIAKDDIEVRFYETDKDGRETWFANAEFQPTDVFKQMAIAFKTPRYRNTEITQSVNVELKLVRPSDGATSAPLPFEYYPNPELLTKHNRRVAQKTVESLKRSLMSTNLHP
Kind of data set: SPR; Biacore 3000, room temperature; Dif immobilised on CM5 by amine coupling, Cactus as analyte (Table 1); kinetic titration; 10 mM HEPES pH 7.4, 150 mM NaCl, 3.4 mM EDTA, 0.005% P20; 1:1 Langmuir fit. Conditions: both partners purified. Background: SPR reads the build-up and loss of mass on a sensor chip optically.

Data set [2] has as its target T2, Cactus, truncated form consisting of its ankyrin repeat domain, N-terminal His tag (Drosophila melanogaster).
T2 chain: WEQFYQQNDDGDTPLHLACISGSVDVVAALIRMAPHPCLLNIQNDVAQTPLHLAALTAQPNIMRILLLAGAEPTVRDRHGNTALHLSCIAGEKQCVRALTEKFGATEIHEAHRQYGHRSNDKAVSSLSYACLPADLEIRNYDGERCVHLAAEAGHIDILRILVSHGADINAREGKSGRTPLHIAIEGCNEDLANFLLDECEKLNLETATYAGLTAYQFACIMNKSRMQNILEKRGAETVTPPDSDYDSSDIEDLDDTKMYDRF
The data set is described as follows: SPR; Biacore 3000, room temperature; IkB or Ank immobilised on CM5 by amine coupling (about 5500 RU); Rel homodimer as analyte, kinetic titration, five doubling injections (typically 160 nM to 2.56 uM), 60 or 90 s, 30 uL/min; 10 mM HEPES pH 7.4, 150 mM NaCl, 3.4 mM EDTA, 0.005% P20; 1:1 Langmuir fit. Conditions: both partners purified.

In data set [3] the target is T3, Rel-49, the C-terminal IkB domain of Relish, N-terminal StrepTagII and C-terminal His tag (Drosophila melanogaster).
T3 construct: Rel-49, the C-terminal IkB fragment that is left after cleavage of compound Relish (Rel-110), Drosophila, GenBank AAF54333; Cloned without a stop codon into pET51-EK-LIC; source: E. coli BL21 (DE3), purified
T3 sequence (Q94527 whole entry, looked up): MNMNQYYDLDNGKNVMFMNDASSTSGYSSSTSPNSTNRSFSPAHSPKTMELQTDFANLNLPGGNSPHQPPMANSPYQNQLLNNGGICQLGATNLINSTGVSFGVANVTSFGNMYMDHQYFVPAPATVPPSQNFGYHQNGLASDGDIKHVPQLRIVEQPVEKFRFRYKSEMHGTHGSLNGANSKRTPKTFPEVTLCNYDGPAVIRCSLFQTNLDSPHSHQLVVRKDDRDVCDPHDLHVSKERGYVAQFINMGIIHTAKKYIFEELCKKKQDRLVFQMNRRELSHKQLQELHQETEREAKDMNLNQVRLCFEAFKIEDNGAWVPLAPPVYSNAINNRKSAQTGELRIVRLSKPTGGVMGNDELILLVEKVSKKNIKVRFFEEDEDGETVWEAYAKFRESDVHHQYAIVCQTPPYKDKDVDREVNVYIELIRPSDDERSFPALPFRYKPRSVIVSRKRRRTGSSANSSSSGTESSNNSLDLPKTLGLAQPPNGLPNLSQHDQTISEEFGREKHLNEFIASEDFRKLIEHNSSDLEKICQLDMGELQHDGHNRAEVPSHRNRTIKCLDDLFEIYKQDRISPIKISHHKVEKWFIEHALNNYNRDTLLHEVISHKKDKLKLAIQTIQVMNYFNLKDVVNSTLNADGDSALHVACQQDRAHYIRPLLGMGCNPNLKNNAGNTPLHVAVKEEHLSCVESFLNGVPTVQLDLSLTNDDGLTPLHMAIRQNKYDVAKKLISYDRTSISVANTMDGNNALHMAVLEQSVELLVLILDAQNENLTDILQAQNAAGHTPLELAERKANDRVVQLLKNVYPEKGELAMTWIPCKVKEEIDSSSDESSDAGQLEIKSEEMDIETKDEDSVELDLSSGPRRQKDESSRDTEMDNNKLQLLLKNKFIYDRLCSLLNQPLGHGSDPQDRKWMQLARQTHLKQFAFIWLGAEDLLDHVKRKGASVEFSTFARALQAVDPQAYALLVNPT
The description is as above. As to conditions: both partners purified.

The target of data set [4] is T4, Ank-H4 of Microplitis demolitor bracovirus, full length, N-terminal His tag (Microplitis demolitor bracovirus (MdBV)).
T4 construct: Ank-H4, Microplitis demolitor bracovirus (MdBV), GenBank AY875685; consists of only an ankyrin repeat domain; amplified from MdBV genomic DNA; pET-30-EK-LIC; source: E. coli BL21 (DE3), purified (Ni-NTA); not shown: His6, N-terminal, kept
T4 sequence (Q5I144 whole entry, the tested form may be a part): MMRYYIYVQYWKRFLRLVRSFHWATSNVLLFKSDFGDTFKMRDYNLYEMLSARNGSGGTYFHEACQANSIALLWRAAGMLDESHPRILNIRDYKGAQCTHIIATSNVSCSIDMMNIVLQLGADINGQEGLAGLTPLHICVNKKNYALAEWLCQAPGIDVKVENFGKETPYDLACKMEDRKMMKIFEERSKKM
The data set is described as above. As to conditions: both partners purified.

Data set [5] concerns the target T1, Dif, truncated (RHD, NLS and 20 …). Kind of data set: SEC; gel filtration of each purified recombinant protein, compared with molecular mass standards. As to conditions: both partners purified.
Data set [6] deals with the molecule itself. The data set is described as above.

B1: Cactus, truncated form consisting of its ankyrin repeat domain, N-terminal His tag (domain or fragment)
chain: T2 chain
modifications: Limits come from the Table S1 cactus primers. The forward primer, after the LIC extension …, encodes WEQFYQQN. The reverse primer encodes DTKMYDRF followed by a stop. Positions were …
Take B1: in data set [1], the dissociation constant Kd was found to be 110 nM, the koff turned out to be 0.00578 s⁻¹ and the kon worked out at 52500 M⁻¹ s⁻¹.

B2: Relish, truncated (RHD, NLS and 20 additional C-terminal residues), StrepTagII-tagged (domain or fragment)
chain: KHVPQLRIVEQPVEKFRFRYKSEMHGTHGSLNGANSKRTPKTFPEVTLCNYDGPAVIRCSLFQTNLDSPHSHQLVVRKDDRDVCDPHDLHVSKERGYVAQFINMGIIHTAKKYIFEELCKKKQDRLVFQMNRRELSHKQLQELHQETEREAKDMNLNQVRLCFEAFKIEDNGAWVPLAPPVYSNAINNRKSAQTGELRIVRLSKPTGGVMGNDELILLVEKVSKKNIKVRFFEEDEDGETVWEAYAKFRESDVHHQYAIVCQTPPYKDKDVDREVNVYIELIRPSDDERSFPALPFRYKPRSVIVSRKRRRTGSSANSSSSGTESSNNSLD
modifications: Limits come from the Table S1 cactus primers. The forward primer, after the LIC extension …, encodes WEQFYQQN. The reverse primer encodes DTKMYDRF followed by a stop. Positions were …
In data set [2], B2 gave a Kd of 2190 nM, a koff of 0.00241 s⁻¹ and an association rate constant (kon) of 1100 M⁻¹ s⁻¹.

B3: Dif, truncated (RHD, NLS and 20 additional C-terminal residues), StrepTagII-tagged (domain or fragment)
chain: T1 chain
modifications: homodimer by gel filtration; StrepTagII left out. Limits: RHD start 78 and NLS end 368 from UniProt features, plus 20 residues; exact limits are only in Figure 1A
For B3, in data set [3], the Kd was 1840 nM, the off-rate constant (koff) was 0.000966 s⁻¹ and the on-rate constant (kon) turned out to be 524 M⁻¹ s⁻¹. In data set [4], this molecule came in with a dissociation constant Kd of 581 nM, a koff of 0.00384 s⁻¹ and a kon of 6620 M⁻¹ s⁻¹.

B4: Dif, truncated (RHD, NLS and 20 additional C-terminal residues), StrepTagII-tagged (domain or fragment)
chain: T1 chain
modifications: homodimer by gel filtration; StrepTagII left out. Limits: RHD start 78 and NLS end 368 from UniProt features, plus 20 residues; exact limits are only in Figure 1A / homodimer by gel filtration …
Turning to B4, the “stoichiometry N” value in data set [5] is 2.

B5: Dorsal, truncated (RHD, NLS and 20 additional C-terminal residues), StrepTagII-tagged (domain or fragment)
chain: PYVKITEQPAGKALRFRYECEGRSAGSIPGVNSTPENKTYPTIEIVGYKGRAVVVVSCVTKDTPYRPHPHNLVGKEGCKKGVCTLEINSETMRAVFSNLGIQCVKKKDIEAALKAREEIRVDPFKTGFSHRFQPSSIDLNSVRLCFQVFMESEQKGRFTSPLPPVVSEPIFDKKAMSDLVICRLCSCSATVFGNTQIILLCEKVAKEDISVRFFEEKNGQSVWEAFGDFQHTDVHKQTAITFKTPRYHTLDITEPAKVFIQLRRPSDGVTSEALPFEYVPMDSDPAHLRRKRQKTGGDPMHLLLQQQQKQQLQN
modifications: Limits come from the Table S1 cactus primers. The forward primer, after the LIC extension …, encodes WEQFYQQN. The reverse primer encodes DTKMYDRF followed by a stop. Positions were …
In data set [2], B5 gave a Kd of 195 nM, a koff of 0.00193 s⁻¹ and a kon of 9890 M⁻¹ s⁻¹.

B6: Dif, truncated (RHD, NLS and 20 additional C-terminal residues), N-terminal thioredoxin fusion (domain or fragment)
chain: PHLRIVEEPTSNIIRFRYKCEGRTAGSIPGMNSSSETGKTFPTIEVCNYDGPVIIVVSCVTSDEPFRQHPHWLVSKEEADACKSGIYQKKLPPEERRLVLQKVGIQCAKKLEMRDSLVERERRNIDPFNAKFDHKDQIDKINRYELRLCYQAFITVGNSKVPLDPIVSSPIYGKSSELTITRLCSCAATANGGDEIIMLCEKIAKDDIEVRFYETDKDGRETWFANAEFQPTDVFKQMAIAFKTPRYRNTEITQSVNVELKLVRPSDGATSAPLPFEYYPNPELLTKHNRRVAQKTVESLKRSLMSTNLHPSKQV
In the case of B6, the “stoichiometry N” value in data set [6] is 2.

In general, Kd refers to the free concentration of one partner at which half of the binding sites on the other are occupied at equilibrium, for simple one-to-one binding. Low values mean a tighter complex, high ones a looser complex. As usually defined, the koff is a measure of how fast the partners let go of each other. The low end stands for a long-lived complex, the high end for a short-lived complex. One may read the kon as the second-order rate constant of association. Higher therefore signals faster complex formation. In general, stoichiometry N refers to the number of molecules, sites or subunits per partner or assembly.
